Results on six molecules are retold here after patent US20210139548A1 (published 2021).

First the molecules themselves.
B1: Compound 43 (peptide)
peptide: Isovaleryl-APEK([AEEA-AEEA-γGlu-C18 diacid])PEAPASPEELQRYYVSLRHYYNWLTRQRY-NH2
SMILES: CC(C)CC(=O)N[C@@H](C)C(=O)N1CCC[C@H]1C(=O)N[C@@H](CCC(=O)O)C(=O)N[C@@H](CCCCNC(=O)COCCOCCNC(=O)COCCOCCNC(=O)CC[C@H](NC(=O)CCCCCCCCCCCCCCCCC(=O)O)C(=O)O)C(=O)N1CCC[C@H]1C(=O)N[C@@H](CCC(=O)O)C(=O)N[C@@H](C)C(=O)N1CCC[C@H]1C(=O)N[C@@H](C)C(=O)N[C@@H](CO)C(=O)N1CCC[C@H]1C(=O)N[C@@H](CCC(=O)O)C(=O)N[C@@H](CCC(=O)O)C(=O)N[C@@H](CC(C)C)C(=O)N[C@@H](CCC(N)=O)C(=O)N[C@@H](CCCNC(=N)N)C(=O)N[C@@H](Cc1ccc(O)cc1)C(=O)N[C@@H](Cc1ccc(O)cc1)C(=O)N[C@H](C(=O)N[C@@H](CO)C(=O)N[C@@H](CC(C)C)C(=O)N[C@@H](CCCNC(=N)N)C(=O)N[C@@H](Cc1c[nH]cn1)C(=O)N[C@@H](Cc1ccc(O)cc1)C(=O)N[C@@H](Cc1ccc(O)cc1)C(=O)N[C@@H](CC(N)=O)C(=O)N[C@@H](Cc1c[nH]c2ccccc12)C(=O)N[C@@H](CC(C)C)C(=O)N[C@H](C(=O)N[C@@H](CCCNC(=N)N)C(=O)N[C@@H](CCC(N)=O)C(=O)N[C@@H](CCCNC(=N)N)C(=O)N[C@@H](Cc1ccc(O)cc1)C(N)=O)[C@@H](C)O)C(C)C
B2: Compound 47 (peptide)
peptide: Isovaleryl-APEK([AEEA-AEEA-γGlu-C18 diacid])PPADASPEELQRYYVSLRHYYNWLTRQRY-NH2
SMILES: CC(C)CC(=O)N[C@@H](C)C(=O)N1CCC[C@H]1C(=O)N[C@@H](CCC(=O)O)C(=O)N[C@@H](CCCCNC(=O)COCCOCCNC(=O)COCCOCCNC(=O)CC[C@H](NC(=O)CCCCCCCCCCCCCCCCC(=O)O)C(=O)O)C(=O)N1CCC[C@H]1C(=O)N1CCC[C@H]1C(=O)N[C@@H](C)C(=O)N[C@@H](CC(=O)O)C(=O)N[C@@H](C)C(=O)N[C@@H](CO)C(=O)N1CCC[C@H]1C(=O)N[C@@H](CCC(=O)O)C(=O)N[C@@H](CCC(=O)O)C(=O)N[C@@H](CC(C)C)C(=O)N[C@@H](CCC(N)=O)C(=O)N[C@@H](CCCNC(=N)N)C(=O)N[C@@H](Cc1ccc(O)cc1)C(=O)N[C@@H](Cc1ccc(O)cc1)C(=O)N[C@H](C(=O)N[C@@H](CO)C(=O)N[C@@H](CC(C)C)C(=O)N[C@@H](CCCNC(=N)N)C(=O)N[C@@H](Cc1c[nH]cn1)C(=O)N[C@@H](Cc1ccc(O)cc1)C(=O)N[C@@H](Cc1ccc(O)cc1)C(=O)N[C@@H](CC(N)=O)C(=O)N[C@@H](Cc1c[nH]c2ccccc12)C(=O)N[C@@H](CC(C)C)C(=O)N[C@H](C(=O)N[C@@H](CCCNC(=N)N)C(=O)N[C@@H](CCC(N)=O)C(=O)N[C@@H](CCCNC(=N)N)C(=O)N[C@@H](Cc1ccc(O)cc1)C(N)=O)[C@@H](C)O)C(C)C
B3: Compound 45 (peptide)
peptide: Isovaleryl-APEK([AEEA-AEEA-γGlu-C18 diacid])PEEEASPESLQRYYVSLRHYYNWLTRQRY-NH2
SMILES: CC(C)CC(=O)N[C@@H](C)C(=O)N1CCC[C@H]1C(=O)N[C@@H](CCC(=O)O)C(=O)N[C@@H](CCCCNC(=O)COCCOCCNC(=O)COCCOCCNC(=O)CC[C@H](NC(=O)CCCCCCCCCCCCCCCCC(=O)O)C(=O)O)C(=O)N1CCC[C@H]1C(=O)N[C@@H](CCC(=O)O)C(=O)N[C@@H](CCC(=O)O)C(=O)N[C@@H](CCC(=O)O)C(=O)N[C@@H](C)C(=O)N[C@@H](CO)C(=O)N1CCC[C@H]1C(=O)N[C@@H](CCC(=O)O)C(=O)N[C@@H](CO)C(=O)N[C@@H](CC(C)C)C(=O)N[C@@H](CCC(N)=O)C(=O)N[C@@H](CCCNC(=N)N)C(=O)N[C@@H](Cc1ccc(O)cc1)C(=O)N[C@@H](Cc1ccc(O)cc1)C(=O)N[C@H](C(=O)N[C@@H](CO)C(=O)N[C@@H](CC(C)C)C(=O)N[C@@H](CCCNC(=N)N)C(=O)N[C@@H](Cc1c[nH]cn1)C(=O)N[C@@H](Cc1ccc(O)cc1)C(=O)N[C@@H](Cc1ccc(O)cc1)C(=O)N[C@@H](CC(N)=O)C(=O)N[C@@H](Cc1c[nH]c2ccccc12)C(=O)N[C@@H](CC(C)C)C(=O)N[C@H](C(=O)N[C@@H](CCCNC(=N)N)C(=O)N[C@@H](CCC(N)=O)C(=O)N[C@@H](CCCNC(=N)N)C(=O)N[C@@H](Cc1ccc(O)cc1)C(N)=O)[C@@H](C)O)C(C)C
B4: Compound 44 (peptide)
peptide: Isovaleryl-APEK([AEEA-AEEA-γGlu-C18 diacid])PEEEASPEELQRYYVSLRHYYNWITRQRY-NH2
SMILES: CC[C@H](C)[C@H](NC(=O)[C@H](Cc1c[nH]c2ccccc12)NC(=O)[C@H](CC(N)=O)NC(=O)[C@H](Cc1ccc(O)cc1)NC(=O)[C@H](Cc1ccc(O)cc1)NC(=O)[C@H](Cc1c[nH]cn1)NC(=O)[C@H](CCCNC(=N)N)NC(=O)[C@H](CC(C)C)NC(=O)[C@H](CO)NC(=O)[C@@H](NC(=O)[C@H](Cc1ccc(O)cc1)NC(=O)[C@H](Cc1ccc(O)cc1)NC(=O)[C@H](CCCNC(=N)N)NC(=O)[C@H](CCC(N)=O)NC(=O)[C@H](CC(C)C)NC(=O)[C@H](CCC(=O)O)NC(=O)[C@H](CCC(=O)O)NC(=O)[C@@H]1CCCN1C(=O)[C@H](CO)NC(=O)[C@H](C)NC(=O)[C@H](CCC(=O)O)NC(=O)[C@H](CCC(=O)O)NC(=O)[C@H](CCC(=O)O)NC(=O)[C@@H]1CCCN1C(=O)[C@H](CCCCNC(=O)COCCOCCNC(=O)COCCOCCNC(=O)CC[C@H](NC(=O)CCCCCCCCCCCCCCCCC(=O)O)C(=O)O)NC(=O)[C@H](CCC(=O)O)NC(=O)[C@@H]1CCCN1C(=O)[C@H](C)NC(=O)CC(C)C)C(C)C)C(=O)N[C@H](C(=O)N[C@@H](CCCNC(=N)N)C(=O)N[C@@H](CCC(N)=O)C(=O)N[C@@H](CCCNC(=N)N)C(=O)N[C@@H](Cc1ccc(O)cc1)C(N)=O)[C@@H](C)O
B5: Compound 48 (peptide)
peptide: Isovaleryl-APEK([AEEA-AEEA-γGlu-C18 diacid])PEEDTEPEELQRYYVSLRHYYNWLTRQRY-NH2
SMILES: CC(C)CC(=O)N[C@@H](C)C(=O)N1CCC[C@H]1C(=O)N[C@@H](CCC(=O)O)C(=O)N[C@@H](CCCCNC(=O)COCCOCCNC(=O)COCCOCCNC(=O)CC[C@H](NC(=O)CCCCCCCCCCCCCCCCC(=O)O)C(=O)O)C(=O)N1CCC[C@H]1C(=O)N[C@@H](CCC(=O)O)C(=O)N[C@@H](CCC(=O)O)C(=O)N[C@@H](CC(=O)O)C(=O)N[C@H](C(=O)N[C@@H](CCC(=O)O)C(=O)N1CCC[C@H]1C(=O)N[C@@H](CCC(=O)O)C(=O)N[C@@H](CCC(=O)O)C(=O)N[C@@H](CC(C)C)C(=O)N[C@@H](CCC(N)=O)C(=O)N[C@@H](CCCNC(=N)N)C(=O)N[C@@H](Cc1ccc(O)cc1)C(=O)N[C@@H](Cc1ccc(O)cc1)C(=O)N[C@H](C(=O)N[C@@H](CO)C(=O)N[C@@H](CC(C)C)C(=O)N[C@@H](CCCNC(=N)N)C(=O)N[C@@H](Cc1c[nH]cn1)C(=O)N[C@@H](Cc1ccc(O)cc1)C(=O)N[C@@H](Cc1ccc(O)cc1)C(=O)N[C@@H](CC(N)=O)C(=O)N[C@@H](Cc1c[nH]c2ccccc12)C(=O)N[C@@H](CC(C)C)C(=O)N[C@H](C(=O)N[C@@H](CCCNC(=N)N)C(=O)N[C@@H](CCC(N)=O)C(=O)N[C@@H](CCCNC(=N)N)C(=O)N[C@@H](Cc1ccc(O)cc1)C(N)=O)[C@@H](C)O)C(C)C)[C@@H](C)O
B6: Compound 49 (peptide)
peptide: Isovaleryl-APEK([AEEA-AEEA-γGlu-C18 diacid])PEEDASPEELQQYYVELRHYYNWLTRQRY-NH2
SMILES: CC(C)CC(=O)N[C@@H](C)C(=O)N1CCC[C@H]1C(=O)N[C@@H](CCC(=O)O)C(=O)N[C@@H](CCCCNC(=O)COCCOCCNC(=O)COCCOCCNC(=O)CC[C@H](NC(=O)CCCCCCCCCCCCCCCCC(=O)O)C(=O)O)C(=O)N1CCC[C@H]1C(=O)N[C@@H](CCC(=O)O)C(=O)N[C@@H](CCC(=O)O)C(=O)N[C@@H](CC(=O)O)C(=O)N[C@@H](C)C(=O)N[C@@H](CO)C(=O)N1CCC[C@H]1C(=O)N[C@@H](CCC(=O)O)C(=O)N[C@@H](CCC(=O)O)C(=O)N[C@@H](CC(C)C)C(=O)N[C@@H](CCC(N)=O)C(=O)N[C@@H](CCC(N)=O)C(=O)N[C@@H](Cc1ccc(O)cc1)C(=O)N[C@@H](Cc1ccc(O)cc1)C(=O)N[C@H](C(=O)N[C@@H](CCC(=O)O)C(=O)N[C@@H](CC(C)C)C(=O)N[C@@H](CCCNC(=N)N)C(=O)N[C@@H](Cc1c[nH]cn1)C(=O)N[C@@H](Cc1ccc(O)cc1)C(=O)N[C@@H](Cc1ccc(O)cc1)C(=O)N[C@@H](CC(N)=O)C(=O)N[C@@H](Cc1c[nH]c2ccccc12)C(=O)N[C@@H](CC(C)C)C(=O)N[C@H](C(=O)N[C@@H](CCCNC(=N)N)C(=O)N[C@@H](CCC(N)=O)C(=O)N[C@@H](CCCNC(=N)N)C(=O)N[C@@H](Cc1ccc(O)cc1)C(N)=O)[C@@H](C)O)C(C)C

*1 amine or outer side, *2 acyl side, *3 side chain or, on linkers, in order; H or OH if unused. Side-chain parts run from the residue outwards. The star is where a group is joined. C18 diacid = O=C(O)CCCCCCCCCCCCCCCCC(=O)*; γGlu = O=C(O)[C@H](CCC(=O)[*:2])N[*:1]; Isovaleryl = CC(C)CC(=O)*; AEEA = NCCOCCOCC(=O)O

For the assay, the target named is T1, human neuropeptide Y2 receptor (human, UniProt P49146 1-381).
T1 construct: whole, on cells; also called hNPY2 receptor; hNPY2-R
T1 sequence (looked up): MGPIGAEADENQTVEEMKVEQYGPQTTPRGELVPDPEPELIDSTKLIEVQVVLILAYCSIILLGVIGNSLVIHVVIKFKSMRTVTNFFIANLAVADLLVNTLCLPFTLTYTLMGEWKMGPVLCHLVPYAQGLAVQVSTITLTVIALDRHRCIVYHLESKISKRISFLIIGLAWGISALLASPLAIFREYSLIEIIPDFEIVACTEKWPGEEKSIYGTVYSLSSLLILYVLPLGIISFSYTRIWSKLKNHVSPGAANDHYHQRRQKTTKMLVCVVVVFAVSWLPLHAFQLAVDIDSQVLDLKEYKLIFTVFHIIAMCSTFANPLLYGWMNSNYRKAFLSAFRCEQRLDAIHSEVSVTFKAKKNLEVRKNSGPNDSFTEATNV
As to the kind of experiment: radioligand competition (125I-PYY(1-36)), hNPY2R membranes. In outline:
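Commercial human Y2 receptor membranes (0.5 μg protein/well) were incubated with peptide for 2 h at room temperature in 50 mM HEPES, 5 mM MgCl₂, 1 mM CaCl₂, pH 7.4, with 0.2% ovalbumin. Bound radioligand was separated on PEI-soaked GF/C filters and counted by scintillation, and IC₅₀ came from nonlinear sigmoidal regression.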
(Loss of bound radioactivity is the signal in a displacement assay; it reports binding, not function.)
By Ki is commonly meant the equilibrium dissociation constant of an inhibitor or competing ligand from its target. Read a high Ki as a looser hold on the target. B1 came in with a Ki of 0.4 nM.
In turn, B2 had a Ki of 0.42 nM.
As to B3, the inhibition constant Ki amounted to 3.97 nM.
Take B4: affinity was put at a Ki of 4.44 nM.
Regarding B5, the affinity, expressed as Ki, was 38.9 nM.
The molecule B6 returned a Ki of 0.89 nM.
